Source: IntAct's records for PubMed 35512704

B1: Speckle-type POZ protein (Homo sapiens), O43791 (parent)
chain: MSRVPSPPPPAEMSSGPVAESWCYTQIKVVKFSYMWTINNFSFCREEMGEVIKSSTFSSGANDKLKWCLRVNPKGLDEESKDYLSLYLLLVSCPKSEVRAKFKFSILNAKGEETKAMESQRAYRFVQGKDWGFKKFIRRDFLLDEANGLLPDDKLTLFCEVSVVQDSVNISGQNTMNMVKVPECRLADELGGLWENSRFTDCCLCVAGQEFQAHKAILAARSPVFSAMFEHEMEESKKNRVEINDVEPEVFKEMMCFIYTGKAPNLDKMADDLLAAADKYALERLKVMCEDALCSNLSVENAAEILILADLHSADQLKTQAVDFINYHASDVLETSGWKSMVVSHPHLVAEAYRSLASAQCPFLGPPRKRLKQS

Variants of: B1
Details: with brd4_human BRD4, O60885

Row | Variant | effect of a mutation on the interaction
1 | MSRVPSPPPPAEMSSGPVAESWCYTQIKVVKFSYMWTINNFSFCREEMGEVIKSSTFSSGANDKLKWCLRVNPKGLDEESKDYLSLYLLLVSCPKSEVRAKFKFSILNAKGEETKAMESQRAYRFVQGKDWGVKKFIRRDFLLDEANGLLPDDKLTLFCEVSVVQDSVNISGQNTMNMVKVPECRLADELGGLWENSRFTDCCLCVAGQEFQAHKAILAARSPVFSAMFEHEMEESKKNRVEINDVEPEVFKEMMCFIYTGKAPNLDKMADDLLAAADKYALERLKVMCEDALCSNLSVENAAEILILADLHSADQLKTQAVDFINYHASDVLETSGWKSMVVSHPHLVAEAYRSLASAQCPFLGPPRKRLKQS [F133V] | disrupting interaction strength

Variants of: B1
Details: with ncoa3_human NCOA3, Q9Y6Q9

Row | Variant | effect of a mutation on the interaction
2 | MSRVPSPPPPAEMSSGPVAESWCYTQIKVVKFSYMWTINNFSFCREEMGEVIKSSTFSSGANDKLKWCLRVNPKGLDEESKDYLSLYLLLVSCPKSEVRAKFKFSILNAKGEETKAMESQRAYRFVQGKDWGVKKFIRRDFLLDEANGLLPDDKLTLFCEVSVVQDSVNISGQNTMNMVKVPECRLADELGGLWENSRFTDCCLCVAGQEFQAHKAILAARSPVFSAMFEHEMEESKKNRVEINDVEPEVFKEMMCFIYTGKAPNLDKMADDLLAAADKYALERLKVMCEDALCSNLSVENAAEILILADLHSADQLKTQAVDFINYHASDVLETSGWKSMVVSHPHLVAEAYRSLASAQCPFLGPPRKRLKQS [F133V] | disrupting interaction strength

Variants of: B1
Details: with jun_human JUN

Row | Variant | effect of a mutation on the interaction
3 | MSRVPSPPPPAEMSSGPVAESWCYTQIKVVKFSYMWTINNFSFCREEMGEVIKSSTFSSGANDKLKWCLRVNPKGLDEESKDYLSLYLLLVSCPKSEVRAKFKFSILNAKGEETKAMESQRAYRFVQGKDWGVKKFIRRDFLLDEANGLLPDDKLTLFCEVSVVQDSVNISGQNTMNMVKVPECRLADELGGLWENSRFTDCCLCVAGQEFQAHKAILAARSPVFSAMFEHEMEESKKNRVEINDVEPEVFKEMMCFIYTGKAPNLDKMADDLLAAADKYALERLKVMCEDALCSNLSVENAAEILILADLHSADQLKTQAVDFINYHASDVLETSGWKSMVVSHPHLVAEAYRSLASAQCPFLGPPRKRLKQS [F133V] | with no effect

Variants of: B1
Details: with akt1_human AKT1, P31749

Row | Variant | effect of a mutation on the interaction
4 | MSRVPSPPPPAEMSSGPVAESWCYTQIKVVKFSYMWTINNFSFCREEMGEVIKSSTFSSGANDKLKWCLRVNPKGLDEESKDYLSLYLLLVSCPKSEVRAKFKFSILNAKGEETKAMESQRAYRFVQGKDWGVKKFIRRDFLLDEANGLLPDDKLTLFCEVSVVQDSVNISGQNTMNMVKVPECRLADELGGLWENSRFTDCCLCVAGQEFQAHKAILAARSPVFSAMFEHEMEESKKNRVEINDVEPEVFKEMMCFIYTGKAPNLDKMADDLLAAADKYALERLKVMCEDALCSNLSVENAAEILILADLHSADQLKTQAVDFINYHASDVLETSGWKSMVVSHPHLVAEAYRSLASAQCPFLGPPRKRLKQS [F133V] | with no effect

Variants of: B1
Details: with alk_human ALK

Row | Variant | effect of a mutation on the interaction
5 | MSRVPSPPPPAEMSSGPVAESWCYTQIKVVKFSYMWTINNFSFCREEMGEVIKSSTFSSGANDKLKWCLRVNPKGLDEESKDYLSLYLLLVSCPKSEVRAKFKFSILNAKGEETKAMESQRAYRFVQGKDWGVKKFIRRDFLLDEANGLLPDDKLTLFCEVSVVQDSVNISGQNTMNMVKVPECRLADELGGLWENSRFTDCCLCVAGQEFQAHKAILAARSPVFSAMFEHEMEESKKNRVEINDVEPEVFKEMMCFIYTGKAPNLDKMADDLLAAADKYALERLKVMCEDALCSNLSVENAAEILILADLHSADQLKTQAVDFINYHASDVLETSGWKSMVVSHPHLVAEAYRSLASAQCPFLGPPRKRLKQS [F133V] | with no effect

Variants of: B1
Details: with aph1a_human APH1A

Row | Variant | effect of a mutation on the interaction
6 | MSRVPSPPPPAEMSSGPVAESWCYTQIKVVKFSYMWTINNFSFCREEMGEVIKSSTFSSGANDKLKWCLRVNPKGLDEESKDYLSLYLLLVSCPKSEVRAKFKFSILNAKGEETKAMESQRAYRFVQGKDWGVKKFIRRDFLLDEANGLLPDDKLTLFCEVSVVQDSVNISGQNTMNMVKVPECRLADELGGLWENSRFTDCCLCVAGQEFQAHKAILAARSPVFSAMFEHEMEESKKNRVEINDVEPEVFKEMMCFIYTGKAPNLDKMADDLLAAADKYALERLKVMCEDALCSNLSVENAAEILILADLHSADQLKTQAVDFINYHASDVLETSGWKSMVVSHPHLVAEAYRSLASAQCPFLGPPRKRLKQS [F133V] | with no effect

Variants of: B1
Details: with arnt_human ARNT

Row | Variant | effect of a mutation on the interaction
7 | MSRVPSPPPPAEMSSGPVAESWCYTQIKVVKFSYMWTINNFSFCREEMGEVIKSSTFSSGANDKLKWCLRVNPKGLDEESKDYLSLYLLLVSCPKSEVRAKFKFSILNAKGEETKAMESQRAYRFVQGKDWGVKKFIRRDFLLDEANGLLPDDKLTLFCEVSVVQDSVNISGQNTMNMVKVPECRLADELGGLWENSRFTDCCLCVAGQEFQAHKAILAARSPVFSAMFEHEMEESKKNRVEINDVEPEVFKEMMCFIYTGKAPNLDKMADDLLAAADKYALERLKVMCEDALCSNLSVENAAEILILADLHSADQLKTQAVDFINYHASDVLETSGWKSMVVSHPHLVAEAYRSLASAQCPFLGPPRKRLKQS [F133V] | with no effect

Variants of: B1
Details: with asxl2_human ASXL2, Q76L83

Row | Variant | effect of a mutation on the interaction
8 | MSRVPSPPPPAEMSSGPVAESWCYTQIKVVKFSYMWTINNFSFCREEMGEVIKSSTFSSGANDKLKWCLRVNPKGLDEESKDYLSLYLLLVSCPKSEVRAKFKFSILNAKGEETKAMESQRAYRFVQGKDWGVKKFIRRDFLLDEANGLLPDDKLTLFCEVSVVQDSVNISGQNTMNMVKVPECRLADELGGLWENSRFTDCCLCVAGQEFQAHKAILAARSPVFSAMFEHEMEESKKNRVEINDVEPEVFKEMMCFIYTGKAPNLDKMADDLLAAADKYALERLKVMCEDALCSNLSVENAAEILILADLHSADQLKTQAVDFINYHASDVLETSGWKSMVVSHPHLVAEAYRSLASAQCPFLGPPRKRLKQS [F133V] | with no effect

Variants of: B1
Details: with bakor_human ATG14, Q6ZNE5

Row | Variant | effect of a mutation on the interaction
9 | MSRVPSPPPPAEMSSGPVAESWCYTQIKVVKFSYMWTINNFSFCREEMGEVIKSSTFSSGANDKLKWCLRVNPKGLDEESKDYLSLYLLLVSCPKSEVRAKFKFSILNAKGEETKAMESQRAYRFVQGKDWGVKKFIRRDFLLDEANGLLPDDKLTLFCEVSVVQDSVNISGQNTMNMVKVPECRLADELGGLWENSRFTDCCLCVAGQEFQAHKAILAARSPVFSAMFEHEMEESKKNRVEINDVEPEVFKEMMCFIYTGKAPNLDKMADDLLAAADKYALERLKVMCEDALCSNLSVENAAEILILADLHSADQLKTQAVDFINYHASDVLETSGWKSMVVSHPHLVAEAYRSLASAQCPFLGPPRKRLKQS [F133V] | with no effect

Variants of: B1
Details: with atm_human ATM

Row | Variant | effect of a mutation on the interaction
10 | MSRVPSPPPPAEMSSGPVAESWCYTQIKVVKFSYMWTINNFSFCREEMGEVIKSSTFSSGANDKLKWCLRVNPKGLDEESKDYLSLYLLLVSCPKSEVRAKFKFSILNAKGEETKAMESQRAYRFVQGKDWGVKKFIRRDFLLDEANGLLPDDKLTLFCEVSVVQDSVNISGQNTMNMVKVPECRLADELGGLWENSRFTDCCLCVAGQEFQAHKAILAARSPVFSAMFEHEMEESKKNRVEINDVEPEVFKEMMCFIYTGKAPNLDKMADDLLAAADKYALERLKVMCEDALCSNLSVENAAEILILADLHSADQLKTQAVDFINYHASDVLETSGWKSMVVSHPHLVAEAYRSLASAQCPFLGPPRKRLKQS [F133V] | with no effect

Variants of: B1
Details: with atpb_human ATP5F1B

Row | Variant | effect of a mutation on the interaction
11 | MSRVPSPPPPAEMSSGPVAESWCYTQIKVVKFSYMWTINNFSFCREEMGEVIKSSTFSSGANDKLKWCLRVNPKGLDEESKDYLSLYLLLVSCPKSEVRAKFKFSILNAKGEETKAMESQRAYRFVQGKDWGVKKFIRRDFLLDEANGLLPDDKLTLFCEVSVVQDSVNISGQNTMNMVKVPECRLADELGGLWENSRFTDCCLCVAGQEFQAHKAILAARSPVFSAMFEHEMEESKKNRVEINDVEPEVFKEMMCFIYTGKAPNLDKMADDLLAAADKYALERLKVMCEDALCSNLSVENAAEILILADLHSADQLKTQAVDFINYHASDVLETSGWKSMVVSHPHLVAEAYRSLASAQCPFLGPPRKRLKQS [F133V] | with no effect

Variants of: B1
Details: with aurkb_human AURKB

Row | Variant | effect of a mutation on the interaction
12 | MSRVPSPPPPAEMSSGPVAESWCYTQIKVVKFSYMWTINNFSFCREEMGEVIKSSTFSSGANDKLKWCLRVNPKGLDEESKDYLSLYLLLVSCPKSEVRAKFKFSILNAKGEETKAMESQRAYRFVQGKDWGVKKFIRRDFLLDEANGLLPDDKLTLFCEVSVVQDSVNISGQNTMNMVKVPECRLADELGGLWENSRFTDCCLCVAGQEFQAHKAILAARSPVFSAMFEHEMEESKKNRVEINDVEPEVFKEMMCFIYTGKAPNLDKMADDLLAAADKYALERLKVMCEDALCSNLSVENAAEILILADLHSADQLKTQAVDFINYHASDVLETSGWKSMVVSHPHLVAEAYRSLASAQCPFLGPPRKRLKQS [F133V] | with no effect

Variants of: B1
Details: with axin2_human AXIN2, Q9Y2T1

Row | Variant | effect of a mutation on the interaction
13 | MSRVPSPPPPAEMSSGPVAESWCYTQIKVVKFSYMWTINNFSFCREEMGEVIKSSTFSSGANDKLKWCLRVNPKGLDEESKDYLSLYLLLVSCPKSEVRAKFKFSILNAKGEETKAMESQRAYRFVQGKDWGVKKFIRRDFLLDEANGLLPDDKLTLFCEVSVVQDSVNISGQNTMNMVKVPECRLADELGGLWENSRFTDCCLCVAGQEFQAHKAILAARSPVFSAMFEHEMEESKKNRVEINDVEPEVFKEMMCFIYTGKAPNLDKMADDLLAAADKYALERLKVMCEDALCSNLSVENAAEILILADLHSADQLKTQAVDFINYHASDVLETSGWKSMVVSHPHLVAEAYRSLASAQCPFLGPPRKRLKQS [F133V] | with no effect

Variants of: B1
Details: with ufo_human AXL

Row | Variant | effect of a mutation on the interaction
14 | MSRVPSPPPPAEMSSGPVAESWCYTQIKVVKFSYMWTINNFSFCREEMGEVIKSSTFSSGANDKLKWCLRVNPKGLDEESKDYLSLYLLLVSCPKSEVRAKFKFSILNAKGEETKAMESQRAYRFVQGKDWGVKKFIRRDFLLDEANGLLPDDKLTLFCEVSVVQDSVNISGQNTMNMVKVPECRLADELGGLWENSRFTDCCLCVAGQEFQAHKAILAARSPVFSAMFEHEMEESKKNRVEINDVEPEVFKEMMCFIYTGKAPNLDKMADDLLAAADKYALERLKVMCEDALCSNLSVENAAEILILADLHSADQLKTQAVDFINYHASDVLETSGWKSMVVSHPHLVAEAYRSLASAQCPFLGPPRKRLKQS [F133V] | with no effect

Variants of: B1
Details: with za2g_human AZGP1, P25311

Row | Variant | effect of a mutation on the interaction
15 | MSRVPSPPPPAEMSSGPVAESWCYTQIKVVKFSYMWTINNFSFCREEMGEVIKSSTFSSGANDKLKWCLRVNPKGLDEESKDYLSLYLLLVSCPKSEVRAKFKFSILNAKGEETKAMESQRAYRFVQGKDWGVKKFIRRDFLLDEANGLLPDDKLTLFCEVSVVQDSVNISGQNTMNMVKVPECRLADELGGLWENSRFTDCCLCVAGQEFQAHKAILAARSPVFSAMFEHEMEESKKNRVEINDVEPEVFKEMMCFIYTGKAPNLDKMADDLLAAADKYALERLKVMCEDALCSNLSVENAAEILILADLHSADQLKTQAVDFINYHASDVLETSGWKSMVVSHPHLVAEAYRSLASAQCPFLGPPRKRLKQS [F133V] | with no effect
